Measured values from patent publication US20090098130A1 (published 2009).
Non-standard residues stand in square brackets, D forms with d. No end group written: not given here. Aib = CC(C)(N)C(=O)O

Target: glucagon-like peptide 1 receptor (GLP-1R)
Test: cell-based or functional assay

| Binder | EC50 (µM), glucose-stimulated insulin secretion (GSIS) assay on pancreatic β cell cultures |
| --- | --- |
| H[Aib]EGTFTSDLSKQLEEEAVRLAIEFLKNGGPSSGAPPPS [GA targeting peptide of SEQ ID NO: 10] | < 10 µM |
| H[Aib]EGTFTSDLSKQLEEEAVRLAIEFLKN [GA targeting peptide of SEQ ID NO: 9] | < 10 µM |
